Experimental data published in patent US10369229B2, “Methods and compositions for liposomal formulation of antigens and uses thereof” (priority 2009, dated 2019).

Tests used:
[1] = Circular dichroism of liposomal lipopeptides (percent helicity); type: physicochemical; settings: formulated in liposomes; estimated from θ222
Description: Liposomal lipopeptide samples were prepared as described above with the following modifications. Stock liposome solutions containing 5 mM carrier lipid and 500 μM lipopeptide were prepared in 10 mM phosphate, pH 7.4. To minimize light scattering, liposomes were prepared by bath sonication under argon until a size of less than 100 nm was obtained. For analysis, samples were diluted to 5 μM lipopeptide in 10 mM phosphate buffer containing 1 mM carrier lipid. Spectra were obtained with a J-715 spectrapolarimeter (Jasco, Easton, Md.) and data were processed using Jasco software. Data were acquired in continuous scanning mode with a pathlength of 1 cm, 0.1 nm interval and scan speed of 1 nm/s. Each spectrum represents an average of two scans. A background spectrum of “empty” liposomes in buffer was subtracted from each sample spectrum. Percent helicity was estimated from θ222 according to the method of Taylor and Kaiser.

[2] = test system: N-MPR (2F5 epitope of HIV-1 gp41 MPR); settings: BALB/C mice, Day 28 sera
Description: All animal procedures were conducted in accordance with the policies and approval of the appropriate Institutional Animal Care and Use Committee. 8 week-old female BALB/C mice (Jackson Laboratories, Bar Harbor, Me.) were housed in a pathogen-free barrier facility. Animals received subcutaneous immunizations in alternating hind hocks on Days 0 and 14. Each injection contained 50 μg lipopeptide, 25 μg MPL and 1 μmol lipid vehicle in 50 μL sterile phosphate-buffered saline. On Day 28 blood was collected from the submandibular vein for characterization of antibody responses. Cells were removed by centrifugation at 14,000 rpm for 15 min (5415C, Eppendorf, Westbury, N.Y.) and sera were stored at −80° C. until use.
ELISAs were developed to quantify binding of immune sera to peptides, lipids, and recombinant gp140. Peptide ELISAs were conducted using MPR peptides biotinylated as described above and captured on 96 well streptavidin-coated plates (#15120, Pierce, Rockford, Ill.). Assays were performed according to the manufacturer's instructions with modifications. […] The reaction was stopped with 0.5M H2SO4 and the yellow product was monitored at 450 nm (Optimax, Molecular Devices, Sunnyvale, Calif.). […] IgG1/IgG2a ratios were calculated as an average of optical density quotients measured at 3 dilutions after subtraction of background values. […]

Substance: N-MPR: peptide corresponding to the 2F5 epitope of HIV-1 gp41 MPR (SEQ ID NO: 2) (NEQELLELDKWASLWNGGK)
- helicity (helical content) [1]: 20.7%
- mice with detected anti-peptide response [2]: 2 of 5
